This assay concerns the target RANKL ectodomain (eRANKL, residues 157-316) of rat (rat) (UniProt Q9ESE2). The assay is described as follows: crystal structure of the complex.
Sequence of UniProt Q9ESE2 (Q9ESE2 157-316 limits assumed): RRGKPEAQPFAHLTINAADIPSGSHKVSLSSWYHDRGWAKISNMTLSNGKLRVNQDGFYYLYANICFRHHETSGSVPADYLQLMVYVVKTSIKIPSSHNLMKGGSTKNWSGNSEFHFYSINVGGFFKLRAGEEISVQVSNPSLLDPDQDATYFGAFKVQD

The substance “RANK ectodomain (eRANK, residue 32-201) of rat (receptor)” had a reduction of solvent accessible surface area on binding of 7680 Å^2; a reduction of solvent accessible surface area on binding, share of the total accessible surface area of unbound receptors and ligands of 15.4%.

Source of the values: patent US20140371143A1.
